Read-outs that look alike come from different tables or passages of the source.
T1: human BMP9 (BMP9/Growth Differentiation Factor 2 [Homo sapiens], NP_057288) (human, UniProt Q9UK05 320-429, limits assumed)
T1 sequence: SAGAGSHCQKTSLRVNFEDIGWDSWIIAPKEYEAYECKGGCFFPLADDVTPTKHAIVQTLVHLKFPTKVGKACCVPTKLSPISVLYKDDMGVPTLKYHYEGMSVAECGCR

T2: rat BMP9 (rat, UniProt M0RB87 320-430, The mature growth factor is a disulfide-linked homodimer. One copy of the polypeptide is given.)
T2 construct: also called rat BMP9 (R&D Systems 5566-BP); rat BMP9 condition medium
T2 sequence: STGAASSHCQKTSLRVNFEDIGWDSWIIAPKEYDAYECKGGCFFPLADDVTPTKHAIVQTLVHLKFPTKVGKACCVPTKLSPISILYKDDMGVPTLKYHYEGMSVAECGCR

T3: human BMP7 (human, UniProt P18075 293-431)
T3 construct: Bought recombinant protein; also called huBMP7; rhBMP7 (R&D Cat#354-BP-010)
T3 sequence (looked up): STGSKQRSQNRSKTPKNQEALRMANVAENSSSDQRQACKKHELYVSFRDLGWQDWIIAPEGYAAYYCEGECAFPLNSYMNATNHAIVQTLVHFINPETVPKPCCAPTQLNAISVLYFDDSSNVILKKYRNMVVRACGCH

T4: human BMP10 (Bone Morphogenetic Protein 10 Preproprotein [Homo sapiens], NP_055297) (human, UniProt O95393 317-424)
T4 construct: Bought recombinant protein; also called huBMP10; rhBMP10 (R&D Cat#2926-BP-025)
T4 sequence: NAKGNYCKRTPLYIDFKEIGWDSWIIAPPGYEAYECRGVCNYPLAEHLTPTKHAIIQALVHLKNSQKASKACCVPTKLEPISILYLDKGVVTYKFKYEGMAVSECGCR

T5: cyno BMP9 (cyno, UniProt G7PEU8 320-429)
T5 sequence: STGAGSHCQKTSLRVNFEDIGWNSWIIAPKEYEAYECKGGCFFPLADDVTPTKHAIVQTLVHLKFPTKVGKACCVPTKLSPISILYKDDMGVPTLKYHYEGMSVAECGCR

T6: mouse BMP9 (mouse, UniProt Q9WV56 319-428, limits assumed)
T6 construct: also called murine BMP9; mouse BMP9 (iPROT101715)
T6 sequence (looked up): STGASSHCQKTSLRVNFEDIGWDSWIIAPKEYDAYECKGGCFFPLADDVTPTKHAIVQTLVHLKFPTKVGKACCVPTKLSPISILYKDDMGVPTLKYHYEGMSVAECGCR


Key:
[1] = molecular target: T1, human BMP9 (BMP9/Growth Differentiation …); experiment: cell-based or functional assay
[2] = molecular target: T1, human BMP9 (BMP9/Growth Differentiation …); experiment: MSD-SET solution equilibrium titration
Procedure: (§1) The amount of free Fab binding sites was determined by transferring the mixtures on antigen-coated plates and a brief incubation. The free Fab was consequently bound to the plate and detected with a detection antibody after a washing step for removing Fab-antigen complexes. The resulting signal was plotted versus the antigen concentration; and the KD was accurately determined by non-linear curve fitting.
(§2) A 22 serial 2ⁿ dilution of the antigens (human BMP9 (GD-43-KS00); cyno BMP9, rat BMP9 (R&D Systems 5566-BP) or mouse BMP9 (iPROT101715)) was prepared in incubation buffer (PBS (Teknova Cat#P0195) containing 0.5% BSA (Sigma Cat#A7906-500G) and 0.02% Tween-20 (VWR Cat#437082Q)). A constant concentration of the Fab was added. A volume of 60 ul of each antigen:Fab mix was distributed in duplicates to a 384-well polypropylene microtiter plate (PP MTP, Greiner Cat#781280). Incubation buffer served as negative control and a sample containing no antigen served as positive control (Bₘₐₓ). The plate was sealed and incubated overnight (O/N) at room temperature (RT).
(§3) A 384-well standard MSD array plate (Meso Scale Discovery Cat#L21XA) was coated with 30 ul/well human BMP9 diluted in PBS as capture agent and incubated O/N at 4° C. After washing for 3 times with 70 ul/well washing buffer (TBS (Teknova Cat#T1680) with 0.05% Tween-20), the plate was blocked with 50 ul/well blocking buffer (PBS with 5% BSA) for 1 hour at RT. After washing, a volume of 30 ul/well of the antigen:Fab mix was transferred from the PP MTP to the coated MSD plate and incubated for 20 min at RT. After an additional wash step, 30 ul of detection antibody (Goat anti-human Fab specific (Jackson Immuno Research Cat#109-005-097) conjugated with MSD SULFO-TAG NHS Ester (Meso Scale Discovery Cat#R91AN-1)) diluted 1:1000 in incubation buffer was added to each well and incubated for 30 min at RT. The MSD plate was washed and 35 ul/well of read buffer (MSD Read Buffer T 4×, Meso Scale Discovery Cat#R92TC-1) was added and then incubated for 5 min at RT. ECL signals were measured with the MSD SECTOR Imager 6000. The data was evaluated with XLfit (IDBS) software following a 1:1 fit model for Fab (according to Piehler et al., 1997).

[3] = molecular target: T2, rat BMP9; experiment: MSD-SET solution equilibrium titration
Procedure: as §1, §2, §3

[4] = molecular target: T1, human BMP9 (BMP9/Growth Differentiation …); experiment: blocking ELISA; competitor Type II BMP receptor (ActRIIB, BMPRII)
Procedure: (§4) Blocking ELISA was used to identify positive clones that can inhibit the interactions between BMP9 and its receptors. Four different recombinant BMP9 receptors can be used: human Alk1-Fc (R&D system, 370-AL-100); human BMPRII-Fc (R&D system, 811-BR-100); human ActRIIA-Fc (R&D system, 340-R2-100); human ActRIIB-Fc (R&D system).
(§5) The blocking activity of antibody sample to specific ligand/receptor combination was measured by ELISA. In brief, 50 ul of receptor at a concentration of 1 ug/ml in coating buffer (PBS) was added into 96 well ELISA plates at 4° C. overnight, followed by washing with PBST one time. ELISA plates were blocked with 200 ul blocking buffer (PBST containing 1% BSA) in each well and then incubated at room temperature (RT) for 1 hour, followed by washing with PBST for 3 times. Diluted antibody sample was mixed with biotinylated human BMP9 (bio-hBMP9 of 1 ug/ml) and incubated at RT for 45 minutes. The mixture of antibody and bio-hBMP9 was added to the plates of 50 ul/well and then incubated at RT for 30 minutes, followed by washing with PBST for 3 times. 50 ul Poly-HRP Streptavidin (Thermofisher, 21140) was added to each well of the plates and incubated at RT for 30 minutes, followed by washing with PBST for 5 times. Finally, 50 ul of TMB reagent (Invitrogen 002023) and 50 ul of 1N HCl (Invitrogen SS01100) were added to each well to stop the reaction. Absorbance of each well was read at 450 nm to get readout OD₄₅₀.

[5] = molecular target: T7, human BMP2 (human, UniProt P12643 283-396); experiment: table caption: MSD-SET; Example 6 describes Biacore SPR for BMP2, BMP7, BMP10
T7 construct: Bought recombinant protein; also called huBMP2; rhBMP2 (R&D Cat#355-BM-010)

[6] = molecular target: T3, human BMP7; experiment: as above
[7] = molecular target: T4, human BMP10 (Bone Morphogenetic Protein …); experiment: Table 5 (caption: MSD-SET; Example 6 describes Biacore SPR on immobilised rhBMP10, Fab 31.25-1000 nM)
[8] = molecular target: T1, human BMP9 (BMP9/Growth Differentiation …); experiment: cell-based or functional assay; remark: listed apart in the source
[9] = molecular target: T5, cyno BMP9; experiment: MSD-SET solution equilibrium titration
Procedure: as §1, §2, §3

[10] = molecular target: T6, mouse BMP9; experiment: MSD-SET solution equilibrium titration
Procedure: as §1, §2, §3

[11] = molecular target: T4, human BMP10 (Bone Morphogenetic Protein …); experiment: Table 7 (caption: MSD-SET; Example 6 describes Biacore SPR on immobilised rhBMP10, Fab 31.25-1000 nM)
[12] = molecular target: T1, human BMP9 (BMP9/Growth Differentiation …); experiment: blocking ELISA; competitor Type I BMP receptor (AlkI)
Procedure: as §4, §5

T7 sequence (P12643 283-396 limits assumed): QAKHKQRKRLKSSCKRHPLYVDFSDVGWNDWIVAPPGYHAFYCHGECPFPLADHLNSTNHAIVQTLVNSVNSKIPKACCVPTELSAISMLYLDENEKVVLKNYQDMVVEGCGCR

Binder | RGA IC50 [pM] (HEK293T BRE-Luc reporter gene assay) [1] | Kd [2] [nM] | Kd [3] [nM] | IC50 [4] [nM] | Kd [5] [nM] | Kd [6] [nM] | binding result [7] | RGA IC50 [pM] (HEK293T BRE-Luc reporter gene assay) [8] | Kd [9] [nM] | Kd [10] [nM] | binding result [11] | IC50 [12] [nM]
Antibody BMP9-5: AM1900 (antibody, human IgG1, kappa, V domains shown) VH: QVQLVQSGAEVKKPGASVKVSCKASGYTFTRYWMHWVRQAPGQGLEWMGEINPSQGGTNYNEKFKSRVTMTVDKSISTAYMELSRLRSDDTAVYYCAIGANYGGLVYWGQGTLVTVSS VL: EIVLTQSPATLSLSPGERATLSCRASESLDNYGISFMNWFQQKPGQAPRFLIYAASNQGSGIPARFSGSGSGTDFTLTISSLQPEDTAVYFCQQSKEVPRTFGGGTKVEIKR | 100 | 0.054 | 0.046 | ≤ 1 | 999 | 108 | no binding | – | – | – | – | –
Antibody BMP9-9: MOR023796 (antibody, human IgG1, lambda, V domains shown, Fully human, phage display) VH: QVQLVQSGAEVKKPGSSVKVSCKASGGTFSDYAIHWVRQAPGQGLEWMGGIIPFFGTAYYAQKFQGRVTITADESTSTAYMELSSLRSEDTAVYYCARRIVSDSVAVQYRHAFDPWGQGTLVTVSS VL: QSVLTQPPSVSGAPGQRVTISCSGSSSNIGSNYVYWYQQLPGTAPKLLIYGNNNRPSGVPDRFSGSKSGTSASLAITGLQAEDEADYYCNAWDTKAYVWVFGGGTKLTVLG | – | 0.44 | – | ≤ 1 | – | – | – | 130 | 0.13 | 0.42 | no binding | –
Antibody BMP9-8: MOR023793 (antibody, human IgG1, kappa, V domains shown, Fully human, phage display) VH: QVQLVQSGAEVKKPGASVKVSCKASGYTFTSYYMNWVRQAPGQGLEWMGWINPVQGNTNYAQKFQGRVTMTRDTSISTAYMELSRLRSEDTAVYYCARNYFDVWGQGTLVTVSS VL: DIQMTQSPSSLSASVGDRVTITCRASQTISNFLAWYQQKPGKAPKLLIYAASNLQSGVPSRFSGSGSGTDFTLTISSLQPEDFAVYYCQQLYAESITFGQGTKVEIKR | – | 0.12 | – | ≤ 1 | – | – | – | 113 | 0.24 | 0.44 | no binding | –
Antibody BMP9-3: MOR023795 (antibody, human IgG1, lambda, V domains shown, Fully human, phage display) VH: EVQLVQSGAEVKKPGESLKISCKGSGYSFTTYWIGWVRQMPGKGLEWMGIIYPEGSYTTYSPSFQGQVTISADKSISTAYLQWSSLKASDTAMYYCARGKRVDASSFDYWGQGTLVTVSS VL: QSVLTQPPSVSGAPGQRVTISCSGSSSNIGDNYVSWYQQLPGTAPKLLIYRNNKRPSGVPDRFSGSKSGTSASLAITGLQAEDEADYYCSSTDKEHLVFGGGTKLTVLG | – | 0.288 | 0.069 | ≤ 1 | – | – | – | 167 | 0.262 | 0.059 | no binding | –
Antibody BMP9-7: MOR023787 (antibody, human IgG1, lambda, V domains shown, Fully human, phage display) VH: QVQLVESGGGLVKPGGSLRLSCAASGFTFSSAWMSWVRQAPGKGLEWVGHIKSKTYGGTIDYAAPVKGRFTISRDDSKNTLYLQMNSLKTEDTAVYYCARVGGYYGYGYAFAYWGQGTLVTVSS VL: SYELTQPLSVSVALGQTARITCSGDNIGDKYVSWYQQKPGQAPVLVIYDDNKRPSGIPERFSGSNSGNTATLTISRAQAGDEADYYCSSTASKSFNVFGGGTKLTVLG | – | 0.2 | – | – | – | – | – | 118 | 0.35 | 0.74 | no binding | ≤ 1
Antibody BMP9-2: MOR022962 (antibody, human IgG1, kappa, V domains shown) VH: QVQLLESGGGLVQPGGSLRLSCAASGFTFSSYAMSWVRQAPGKGLEWVSITLGTGHTHYADSVKGRFTISRDNSKNTLYLQMNSLRAEDTAVYYCARGSYIIWSALDYWGQGTLVTVSS VL: DIQMTQSPSSLSASVGDRVTITCRASQDIRSYLNWYQQKPGKAPKLLIYDASNLQSGVPSRFSGSGSGTDFTLTISSLQPEDFATYYCQQSDTSPLTFGQGTKVEIKR | – | 0.012 | 0.006 | – | – | – | – | 138 | 0.018 | 0.005 | no binding | ≤ 1
